The text below walks through data of paper PMC12802937.

As a reminder, the Kd is the constant that tells how readily two partners part at equilibrium. A word on the koff: it is the first-order rate constant of dissociation. A low value points to slow dissociation. The kon is the second-order rate constant of association. Lower therefore signals slower complex formation.

In assay [1] the target is RNF-MD S5i (E766K in RNF20 and K57E/R804E in RNF40) (human) (UniProt Q5VTR2). As to the kind of experiment: SPR; RNF-MD immobilised on a CM5 chip, intein-WAC flown over; Biacore 8K, 25°C, 20 mM HEPES (pH 7.5), 200 mM sodium chloride, 0.02% Tween 20.
Assay [2] concerns the target RNF-MD S4i (D780K in RNF20) (human) (UniProt Q5VTR2). Described as above.

B1: intein-CBD-tagged WAC-CT (WAC residues 570–647) (domain or fragment)
chain: HVQGWPADHAEKQASRLREEAHNMGTIHMSEICTELKNLRSLVRVCEIQATLREQRILFLRQQIKELEKLKNQNSFMV
Take B1: in assay [1], the Kd amounted to 464 nM, the koff turned out to be 0.0142 s⁻¹ and the kon was 30500 M⁻¹ s⁻¹.

B2: intein-WAC S4 (R630E) (domain or fragment)
chain: HVQGWPADHAEKQASRLREEAHNMGTIHMSEICTELKNLRSLVRVCEIQATLREQRILFLEQQIKELEKLKNQNSFMV
As for B2, in assay [2], the Kd stood at 249 nM, the koff was 0.0435 s⁻¹ and the kon was 17500 M⁻¹ s⁻¹.
